Assay results: patent US20040126784

What was measured:
[1] = biological target: maltose binding protein (MBP)

Sequence of p53, P04637 (P04637 whole entry, looked up, the tested form may be a part): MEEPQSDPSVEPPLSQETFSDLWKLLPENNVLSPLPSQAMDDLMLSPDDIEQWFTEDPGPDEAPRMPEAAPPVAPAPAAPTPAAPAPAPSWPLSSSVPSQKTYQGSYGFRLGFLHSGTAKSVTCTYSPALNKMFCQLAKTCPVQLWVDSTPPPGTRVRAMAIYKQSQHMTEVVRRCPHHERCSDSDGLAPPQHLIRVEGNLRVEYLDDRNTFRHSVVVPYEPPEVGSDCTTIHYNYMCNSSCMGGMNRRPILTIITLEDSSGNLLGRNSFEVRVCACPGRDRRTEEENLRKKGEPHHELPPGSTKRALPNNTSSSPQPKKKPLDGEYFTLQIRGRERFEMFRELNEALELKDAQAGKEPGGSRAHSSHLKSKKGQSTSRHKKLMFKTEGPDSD

Row | Protein | kinase activity (32P-ATP kinase reaction) [1] | kinase activity (32P-ATP kinase reaction) (p53, P04637)
1 | GST-CNK (wild type CNK fused to GST, produced in E. coli) (protein) MLAGLPTSDPGRLITDPRSGRTYLKGRLLGKGGFARCYEATDTETGSAYAVKVIPQSRVAKPHQREKILNEIELHRDLQHRHIVRFSHHFEDADNIYIFLELCSRKSLAHIWKARHTLLEPEVRYYLRQILSGLKYLHQRGILHRDLKLGNFFITENMELKVGDFGLAARLEPPEQRKKTICGTPNYVAPEVLLRQGHGPEADVWSLGCVMYTLLCGSPPFETADLKETYRCIKQVHYTLPASLSLPARQLLAAILRASPRDRPSIDQILRHDFFTKGYTPDRLPISSCVTVPDLTPPNPARSLFAKVTKSLFGRKKKSKNHAQERDEVSGLVSGLMRTSVGHQDARPEAPAASGPAPVSLVETAPEDSSPRGTLASSGDGFEEGLTVATVVESALCALRNCIAFMPPAEQNPAPLAQPEPLVWVSKWVDYSNKFGFGYQLSSRRVAVLFNDGTHMALSANRKTVHYNPTSTKHFSFSVGAVPRALQPQLGILRYFASYMEQHLMKGGDLPSVEEVEVPAPPLLLQWVKTDQALLMLFSDGTVQVNFYGDHTKLILSGWEPLLVTFVARNRSACTYLASHLRQLGCSPDLRQRLRYALRLLRDRSPA | Wild type GST-CNK phosphorylated p53, maltose binding protein (MBP) and also exhibited autophosphorylation activity. | Wild type GST-CNK phosphorylated p53, maltose binding protein (MBP) and also exhibited autophosphorylation activity.
2 | GST-CNK D146A mutant (protein) MLAGLPTSDPGRLITDPRSGRTYLKGRLLGKGGFARCYEATDTETGSAYAVKVIPQSRVAKPHQREKILNEIELHRDLQHRHIVRFSHHFEDADNIYIFLELCSRKSLAHIWKARHTLLEPEVRYYLRQILSGLKYLHQRGILHRALKLGNFFITENMELKVGDFGLAARLEPPEQRKKTICGTPNYVAPEVLLRQGHGPEADVWSLGCVMYTLLCGSPPFETADLKETYRCIKQVHYTLPASLSLPARQLLAAILRASPRDRPSIDQILRHDFFTKGYTPDRLPISSCVTVPDLTPPNPARSLFAKVTKSLFGRKKKSKNHAQERDEVSGLVSGLMRTSVGHQDARPEAPAASGPAPVSLVETAPEDSSPRGTLASSGDGFEEGLTVATVVESALCALRNCIAFMPPAEQNPAPLAQPEPLVWVSKWVDYSNKFGFGYQLSSRRVAVLFNDGTHMALSANRKTVHYNPTSTKHFSFSVGAVPRALQPQLGILRYFASYMEQHLMKGGDLPSVEEVEVPAPPLLLQWVKTDQALLMLFSDGTVQVNFYGDHTKLILSGWEPLLVTFVARNRSACTYLASHLRQLGCSPDLRQRLRYALRLLRDRSPA | The GST-CNK D146A mutant did not exhibit kinase activity. | The GST-CNK D146A mutant did not exhibit kinase activity.
